The subject of test [1] is H441 cells. The experiment in a line: Scrape assay (Met mediated cell motility). Conditions: H441, 100 ng/ml HGF, serum-free. Type of test: cell-based, Human. The procedure:
H441 cells were seeded at a density of 4.5×10^4 cells/well in a 96-well plate with 10% FBS in 50:50 DMEM/F12. The next day, a single scrape was made in the confluent monolayer in each well as described previously (Lorenzato et al., 2002). The cells were then incubated with media containing 0.5% BSA and treated with mock, 10 μg/ml 5D5, 10 μg/ml Sema, or 100 ng/ml HGF. The scrape was monitored and photographed daily. Representative results are shown for Day 2.
H441 cells were used in a scrape assay as a measure of Met mediated cell motility (Lorenzato et al., 2002). H441 cells grown to high density were scraped in each well on day 0 and maintained in serum-free media containing 0.5% BSA for the duration of the experiment (FIG. 6). Cells were either treated with 10 μg/ml rSema or 5D5 or 100 ng/ml HGF as a positive control or mock treated. […] These observations were consistent in four separate experiments.
To examine the effect of rSema on cell motility in the presence of ligand, cells were treated with 0, 0.1, 0.5, or 5 μg/ml rSema plus 20 ng/ml HGF. Cells treated with HGF alone closed the gap completely by Day 1.

The target of test [2] is T1, Met extracellular domain deletion mutants (EC-WT, ΔS, ΔP, ΔIPT3, TM) (Homo sapiens, UniProt P08581).
T1 construct: Sub-domain deletions of the Met extracellular domain were made from the N-terminus and tagged after the TM region with V5/His; expressed in transfected cells; host or cells: 293 cells (lysates)
Briefly: Co-immunoprecipitation of HGF / scHGF with V5/His-tagged Met deletion mutants. Conditions: lysates of transfected 293 cells incubated with 5 μg HGF or scHGF, HGF α chain immunoblot. Type of test: binding. The text has this:
Extracellular sub-domain deletions of c-Met were constructed using conventional PCR methods. N-terminal primers containing the start of Sema, PSI, first IPT, or fourth IPT domains flanked by a KpnI site were paired with a C-terminal primer up to Met residue 959 flanked by a StuI site. c-Met was used as template and the PCR fragments for each clone were inserted into pCR-Blunt II-TOPO vector using the Zero Blunt TOPO PCR cloning kit (Invitrogen) according to manufacturer's instructions. The clones were confirmed by DNA sequencing. The constructs were then subcloned into pcDNA3.1 V5/His vector (Invitrogen) via KpnI and EcoRV to add a tag at the C-terminus. The signal peptide of Met was added via the HindIII and KpnI sites at the N-terminus of each clone. Each clone was digested with HindIII and EcoRV and subcloned into pRK5TKneo vector via HindIII and PmeI. For EC-WT Flag and EC-WT V5/His clones, an N-terminal primer containing a HindIII site was paired with a C-terminal primer up to Met residue 595 flanked by a StuI site. EC-WT V5/His was subcloned via HindIII/StuI into the HindIII/EcoRV sites of pcDNA3.1 V5/His, and then subcloned into pRK5TKneo as described above. For EC-WT Flag, the PCR fragment was ligated to pCR-Blunt II-TOPO vector. […]
Cell lines were obtained from American Type Culture Collection (ATCC). […] Proteins were detected by enhanced chemiluminescence (ECL-Plus, Amersham). […]
In general terms: Immunoblotting shows a protein as a band on a membrane.

For test [3], the system named is recombinant EC-Met and Sema domain proteins. Briefly: Coimmunoprecipitation with recombinant EC-Met and Sema domain proteins. Type of test: binding. Conditions: data not shown.
Test [4] concerns the target T2, Met (Homo sapiens, UniProt P08581). Conditions: Lokker et al., 1992; cited from earlier work.
Target sequence in this assay (P08581 25-1390): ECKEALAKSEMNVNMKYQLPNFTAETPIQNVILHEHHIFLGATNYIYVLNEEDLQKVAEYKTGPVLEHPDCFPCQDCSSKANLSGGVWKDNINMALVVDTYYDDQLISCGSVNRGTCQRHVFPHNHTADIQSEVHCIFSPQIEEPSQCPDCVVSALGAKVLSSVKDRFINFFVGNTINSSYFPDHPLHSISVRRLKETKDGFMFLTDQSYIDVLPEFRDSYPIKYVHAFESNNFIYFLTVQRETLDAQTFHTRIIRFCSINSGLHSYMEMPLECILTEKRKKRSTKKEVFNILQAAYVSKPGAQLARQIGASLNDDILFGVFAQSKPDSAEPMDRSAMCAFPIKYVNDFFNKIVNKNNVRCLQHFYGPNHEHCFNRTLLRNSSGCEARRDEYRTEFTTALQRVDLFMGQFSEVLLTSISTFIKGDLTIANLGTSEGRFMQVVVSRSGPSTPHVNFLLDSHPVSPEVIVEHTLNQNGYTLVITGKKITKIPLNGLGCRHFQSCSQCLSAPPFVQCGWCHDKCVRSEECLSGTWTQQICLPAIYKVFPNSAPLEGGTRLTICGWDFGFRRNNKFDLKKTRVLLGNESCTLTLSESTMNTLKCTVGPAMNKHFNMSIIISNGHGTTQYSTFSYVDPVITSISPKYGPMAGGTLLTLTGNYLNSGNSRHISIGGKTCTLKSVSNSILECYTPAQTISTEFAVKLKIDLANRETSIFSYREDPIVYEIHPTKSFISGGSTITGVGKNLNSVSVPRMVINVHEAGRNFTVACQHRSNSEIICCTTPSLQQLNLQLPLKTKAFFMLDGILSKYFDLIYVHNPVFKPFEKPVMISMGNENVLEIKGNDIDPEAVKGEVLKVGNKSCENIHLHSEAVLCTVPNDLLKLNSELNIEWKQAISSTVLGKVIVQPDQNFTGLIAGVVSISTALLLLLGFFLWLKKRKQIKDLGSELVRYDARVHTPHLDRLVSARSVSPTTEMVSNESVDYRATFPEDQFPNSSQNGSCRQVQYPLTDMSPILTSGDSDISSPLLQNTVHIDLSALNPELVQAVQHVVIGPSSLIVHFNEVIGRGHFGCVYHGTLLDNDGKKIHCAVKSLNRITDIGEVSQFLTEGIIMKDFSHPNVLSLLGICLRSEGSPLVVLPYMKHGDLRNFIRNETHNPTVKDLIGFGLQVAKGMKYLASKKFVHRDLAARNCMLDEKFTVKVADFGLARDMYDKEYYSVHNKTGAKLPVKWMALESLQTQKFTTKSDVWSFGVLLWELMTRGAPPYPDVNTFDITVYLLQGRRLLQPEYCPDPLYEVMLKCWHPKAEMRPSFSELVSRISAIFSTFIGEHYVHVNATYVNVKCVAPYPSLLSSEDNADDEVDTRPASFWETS
The target of test [5] is T2, Met. Briefly: Met tyrosine phosphorylation in A549 cells (immunoprecipitation / phosphotyrosine immunoblot). It is filed as cell-based. The arrangement: endogenous in cells; host or cells: A549 (lung carcinoma). Conditions: A549 cells transfected with Met deletion mutants, vs mock. The procedure:
(§1) Cell lines were obtained from American Type Culture Collection (ATCC). 293 cells were maintained in DMEM supplemented with 10% FBS (Sigma), penicillin/streptomycin (GIBCO), and glutamine A549, H441, and MDA-MB-435 cells were maintained in 50:50 DMEM/F12 (Cellgro) supplemented with 10% FBS, penicillin/streptomycin, and glutamine Cells were transfected with 1-12 μg of the indicated constructs using Lipofectamine 2000 (Invitrogen) according to manufacturer's instructions. Twenty-four hrs later cells were harvested with 1% NP40 lysis buffer containing Complete protease inhibitor cocktail tablet and phosphatase inhibitor cocktail 2 (Roche and Sigma, respectively). For Met tyrosine phosphorylation and MAPK phosphorylation studies, cells were serum-starved for 2 hr with 0.5% BSA. Cells treated with 10 μg/ml anti-Met 5D5-Fab or rSema were incubated for an additional 1 hr prior to lysis. Cell debris was centrifuged and the supernatant was precleared with Protein A Sepharose (Sigma) or Protein G-Plus agarose beads (Santa Cruz) for 1 hr. 500 μg of lysates was then immunoprecipitated with 10 μg 5D5 antibody (Genentech) or 35 ul of Met (C-28) agarose conjugate (Santa Cruz) overnight at 4° C. with rotation. For HGF binding studies, 500 μg of lysates were incubated with 5 μg scHGF or HGF followed by immunoprecipitation with 1 μg of V5 antibody. Protein A or G beads were added for an additional 2 hrs before immunoprecipitates were washed 3 times with 1% NP40 lysis buffer. After addition of 2× sample buffer with 10 mM DTT, the samples were run on 4-12% Tris-glycine gels (Invitrogen). […] Proteins were detected by enhanced chemiluminescence (ECL-Plus, Amersham).
(§2) Human tumor cells were treated with increasing concentrations of rSema and analyzed for Met tyrosine phosphorylation and downstream activation of mitogen activated protein kinase (MAPK) upon HGF stimulation. […]
Target sequence in this assay (P08581 308-1390, one chain of several): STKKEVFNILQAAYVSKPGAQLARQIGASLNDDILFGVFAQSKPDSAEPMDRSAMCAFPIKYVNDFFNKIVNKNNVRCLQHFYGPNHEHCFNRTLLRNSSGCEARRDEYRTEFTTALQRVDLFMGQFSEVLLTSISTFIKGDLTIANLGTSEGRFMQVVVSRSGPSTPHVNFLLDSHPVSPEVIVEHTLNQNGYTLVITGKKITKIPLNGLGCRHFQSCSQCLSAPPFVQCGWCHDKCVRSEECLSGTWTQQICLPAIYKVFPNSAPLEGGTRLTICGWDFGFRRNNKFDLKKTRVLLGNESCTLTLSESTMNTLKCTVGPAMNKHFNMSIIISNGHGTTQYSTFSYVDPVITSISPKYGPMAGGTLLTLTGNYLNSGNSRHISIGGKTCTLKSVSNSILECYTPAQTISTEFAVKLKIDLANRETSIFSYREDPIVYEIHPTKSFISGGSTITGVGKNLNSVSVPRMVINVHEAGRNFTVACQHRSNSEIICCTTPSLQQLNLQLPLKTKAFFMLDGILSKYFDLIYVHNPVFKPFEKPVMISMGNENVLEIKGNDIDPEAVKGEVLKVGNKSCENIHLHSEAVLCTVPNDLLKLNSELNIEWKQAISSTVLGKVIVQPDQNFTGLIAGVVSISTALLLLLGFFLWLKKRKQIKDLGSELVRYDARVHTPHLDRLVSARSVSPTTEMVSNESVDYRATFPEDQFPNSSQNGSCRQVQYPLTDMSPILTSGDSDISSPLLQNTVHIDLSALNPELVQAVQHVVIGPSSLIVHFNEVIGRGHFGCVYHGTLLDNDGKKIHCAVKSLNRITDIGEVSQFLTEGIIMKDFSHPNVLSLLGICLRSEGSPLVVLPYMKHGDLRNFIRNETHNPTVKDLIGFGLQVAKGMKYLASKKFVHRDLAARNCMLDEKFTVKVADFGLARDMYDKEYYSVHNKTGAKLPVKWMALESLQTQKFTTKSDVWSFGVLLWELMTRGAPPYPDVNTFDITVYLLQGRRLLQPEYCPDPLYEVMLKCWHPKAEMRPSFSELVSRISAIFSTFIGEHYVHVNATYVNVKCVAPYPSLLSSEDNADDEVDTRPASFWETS

Test [6] relates to MAPK. The experiment in a line: MAPK phosphorylation in A549 cells (immunoblot). It is filed as cell-based, Human. Conditions: A549 cells transfected with Met deletion mutants, vs mock. The procedure:
as §1, §2

T1 sequence (P08581 308-959 limits assumed, stated change not applied, one chain of several): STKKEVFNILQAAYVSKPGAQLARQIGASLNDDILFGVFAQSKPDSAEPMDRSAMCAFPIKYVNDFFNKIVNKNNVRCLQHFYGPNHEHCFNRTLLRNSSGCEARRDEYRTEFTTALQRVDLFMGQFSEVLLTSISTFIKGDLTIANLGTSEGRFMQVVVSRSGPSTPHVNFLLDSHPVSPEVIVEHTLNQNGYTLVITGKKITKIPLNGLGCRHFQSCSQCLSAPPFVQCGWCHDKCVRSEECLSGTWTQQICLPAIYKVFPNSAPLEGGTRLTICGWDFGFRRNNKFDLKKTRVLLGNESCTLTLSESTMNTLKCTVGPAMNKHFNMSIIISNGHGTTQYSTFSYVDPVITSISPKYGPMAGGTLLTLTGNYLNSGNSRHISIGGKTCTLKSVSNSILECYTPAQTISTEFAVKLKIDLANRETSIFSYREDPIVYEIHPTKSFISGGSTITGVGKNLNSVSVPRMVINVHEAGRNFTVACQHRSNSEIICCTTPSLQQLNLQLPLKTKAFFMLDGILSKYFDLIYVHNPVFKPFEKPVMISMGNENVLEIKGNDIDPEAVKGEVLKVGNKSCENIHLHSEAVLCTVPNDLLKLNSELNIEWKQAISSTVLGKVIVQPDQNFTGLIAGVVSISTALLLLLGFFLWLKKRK

As to “HGF: Recombinant HGF, cognate ligand of the Met receptor; positive control”, the “gap closure in scrape assay (positive control)” value in test [1] is recorded as “closed the gap by Day 1”. The “binding to Met deletion mutants” value in test [2] is “bound EC-WT alone”. The “binding to recombinant EC-Met and Sema domain proteins” value in test [3] was “bound to recombinant EC-Met and Sema domain proteins”.
With “scHGF (R494E): Single-chain HGF containing an R494E mutation [reference compound]”, the “binding and activation of the Met receptor” value in test [4] was “binds and inhibits activation of the Met receptor”. The “binding to Met deletion mutants” value in test [2] was “only binds EC-WT and not the Sema deleted mutants”. For the same molecule, in test [3], the “binding to recombinant EC-Met and Sema domain proteins” value is “bound to recombinant EC-Met and Sema domain proteins”.

B1: EC-WT: membrane-bound extracellular Met construct containing the Sema domain, V5/His tagged, expressed by transfection (protein, UniProt P08581 25-932, looked up)
extracellular domain: ECKEALAKSEMNVNMKYQLPNFTAETPIQNVILHEHHIFLGATNYIYVLNEEDLQKVAEYKTGPVLEHPDCFPCQDCSSKANLSGGVWKDNINMALVVDTYYDDQLISCGSVNRGTCQRHVFPHNHTADIQSEVHCIFSPQIEEPSQCPDCVVSALGAKVLSSVKDRFINFFVGNTINSSYFPDHPLHSISVRRLKETKDGFMFLTDQSYIDVLPEFRDSYPIKYVHAFESNNFIYFLTVQRETLDAQTFHTRIIRFCSINSGLHSYMEMPLECILTEKRKKRSTKKEVFNILQAAYVSKPGAQLARQIGASLNDDILFGVFAQSKPDSAEPMDRSAMCAFPIKYVNDFFNKIVNKNNVRCLQHFYGPNHEHCFNRTLLRNSSGCEARRDEYRTEFTTALQRVDLFMGQFSEVLLTSISTFIKGDLTIANLGTSEGRFMQVVVSRSGPSTPHVNFLLDSHPVSPEVIVEHTLNQNGYTLVITGKKITKIPLNGLGCRHFQSCSQCLSAPPFVQCGWCHDKCVRSEECLSGTWTQQICLPAIYKVFPNSAPLEGGTRLTICGWDFGFRRNNKFDLKKTRVLLGNESCTLTLSESTMNTLKCTVGPAMNKHFNMSIIISNGHGTTQYSTFSYVDPVITSISPKYGPMAGGTLLTLTGNYLNSGNSRHISIGGKTCTLKSVSNSILECYTPAQTISTEFAVKLKIDLANRETSIFSYREDPIVYEIHPTKSFISGGSTITGVGKNLNSVSVPRMVINVHEAGRNFTVACQHRSNSEIICCTTPSLQQLNLQLPLKTKAFFMLDGILSKYFDLIYVHNPVFKPFEKPVMISMGNENVLEIKGNDIDPEAVKGEVLKVGNKSCENIHLHSEAVLCTVPNDLLKLNSELNIEWKQAISSTVLGKVIVQPDQNFT
modifications: extracellular domain V5/His tag, membrane-bound
In the case of B1, the “endogenous Met tyrosine phosphorylation in transfectants” value in test [5] is on record as “attenuation”. The phospho-MAPK in transfectants result in test [6] is on record as “attenuation”.

(Values after patent publication US20120171210A1, “METHODS AND COMPOSITIONS FOR INHIBITING C-MET DIMERIZATION AND ACTIVATION” (Genentech, Inc., priority 2003, published 2012).)
